Results from patent US9969998B2, “Compositions of adenosine deaminase-2 (ADA2), variants thereof and methods of using same” (Halozyme, Inc., priority 2014, dated 2018).
Values joined by “and” are separate entries in the source; they are usually repeats but may differ in a detail not shown here. Equal values may be shown once. Blank lines part the entries; values can stand above or below the molecule they belong to.

Assays:
[1] = system: NK/T cells; assay: Adenosine-mediated inhibition of NK/T cell proliferation (Cell Titer Glow); type: cell-based, human; conditions: 5 days
Protocol: A mixture of NK and T cells (NK/T) were prepared from healthy donor's peripheral blood mononuclear cells (PBMC). Briefly, 10×10^7 HumanPBMCs were cultured for 6-7 days in Stem cell growth medium (SCGM; Order No. 20802-0500, CellGenix, Freiburg, Germany) with 5% human serum from donors with blood type AB (human AB serum; Cat. No. 35-060-C1, Mediatech, Mannassas, Va.) in the presence of 20 ng/mL anti-CD3 eBioscience, San Diego, Calif.; Cat. No. 16-0039) and 500 IU/mL recombinant human interleukin 2 (rhIL-2; Cat. No. 200-02, PeproTech, Rocky Hill, N.J.). The cells were then cultured for an additional 2-3 weeks in SCGM in the presence of 500 IU/mL rhIL-2. NK/T cells cultured for 2-4 weeks were used in experiments.
To test the adenosine-mediated inhibition of NK/T cells proliferation, NK/T cells (10,000 cells/well) were plated in a 96 well white plate with clear bottoms in 200 μL volume. The cells were treated with 20 μL adenosine (SKU No. A925, Sigma Aldrich) at concentrations resulting from a 3-fold dilution series starting at 1 mM, i.e. 1 mM, 300 μM, 100 μM, 30 μM, 10 μM, 3 μM, 1 μM, 0.3 μM and 0.1 μM. The NK/T cells were allowed to grow for 5 days in a humidified tissue culture incubator at 37° C. with 5% CO2. After 5 days of treatment, the cells were centrifuged in a 96 well plate at […] for 5 min. 100 μL of medium was removed from each well of cells, followed by addition of 100 μL of Cell Titer Glow (CTG) reagent (Cat. No. G7570, Promega, Madison, Wis.) and incubated at room temperature for 15 min before measuring luminescence on the SpectraMax M3 plate reader according to the manufacturer's instructions. The mean cell survival (%) was determined by comparison of the measured luminescence to control cells not treated with adenosine

[2] = Adenosine deaminase (ADA) enzymatic activity assay kit; type: biochemical
[3] = Heparin binding capture ELISA (biotin-heparin on streptavidin plate); conditions: PEGylated and non-PEGylated forms (Table 22)
Protocol: Heparin binding of PEGylated rHuADA2 or variants was assessed by capture ELISA. Binding of rHuADA1 was assessed as a negative control. 100 μL of 0.2 mg/mL biotin-heparin (Sigma-Aldrich, St. Louis, Mo.; Cat No. B9806-10MG) was added to a streptavidin coated 96-well plate (Thermo Fisher Scientific, Rockford, Ill.; Cat. No. 15520), and incubated at room temperature for 1 hour. The plate was washed 6 times with PBS. Then, 150 μL of […] rHuADA2 was added to the heparin coated plate, titrated in 3× serial dilutions, and incubated at room temperature for 2 hours. The plate was then washed 6 times with PBS. A 1000× dilution of goat HRP-anti-FLAG pAb (Abcam, Cambridge, UK; Cat. No. Ab1238) was added to the ELISA plate and incubated at room temperature for 1 hour. The ELISA plate was then washed 6 times with phosphate buffered saline with Tween (PBST) and developed with the 3,3′,5,5′-Tetramethylbenzidine (TMB) substrate solution (Pierce, Thermo Fisher Scientific, Rockford, Ill.) according the manufacturer's instructions and reading the optical density at 450 nm (OD450) on a plate reader.

[4] = mouse, in vivo, iv, 7.5 mg/kg
[5] = Thermal stability by differential scanning fluorimetry (DSF); type: physicochemical; conditions: 0.1-1 mg/mL protein
Protocol: The stability of the rHuADA2 WT and variants was measured by differential scanning fluorimetry (DSF) at increasing temperatures. DSF measures conformational stability, which correlates with thermal stability. The melting temperature (Tm) in DSF is defined as the midpoint of the protein unfolding transition.
Non-PEGylated WT rHuADA2, non-PEGylated rHuADA2 variants, and PEGylated forms of WT rHuADA2 and rHuADA2 variants were prepared at concentrations of 0.1-1 mg/mL and mixed with the ROX™ protein thermal shift dye (Applied Biosystems, Carlsbad, Calif.; Cat. No. 4461146) to a final dye concentration that corresponds to a 125-fold dilution of the stock ROX™ solution. Protein samples were then loaded into 96-well plate at a volume of 20 μL/well in triplicate. A ViiA7 RT-PCR System (Applied Biosystems, Carlsbad, Calif.) was used to measure the shift in fluorescence as the temperature of the samples were increased. The reactions were subjected to the following steps: incubation at 25° C. for 2 min; ramping of temperature from 25 to 99° C. at a rate of 0.05° C. per second; followed by a 99° C. incubation for 2 min. The wavelengths used for emission and excitation were 623 nanometers (nm) and 580 nm, respectively.

[6] = Kinetic assessment of adenosine deaminase activity (ammonia assay, Michaelis-Menten); type: biochemical; conditions: for Km / Vmax / kcat: [E] = 8.5 nM; for kcat: kcat=Vmax/0.0085/60
Outline: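 Coupled ammonia assay: rHuADA2 WT or variants (1 μg/mL, 17 nM in 2× mix) with adenosine 20 μM–20 mM, α-ketoglutarate, NADPH and GDH, at pH 7.6 or pH 6.5 (PIPES), room temperature. Michaelis-Menten fit gave Km, Vmax, kcat, kcat/Km.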

[7] = system: adenosine in tumor extracellular matrix; assay: Adenosine in MH194+PSC4 tumor extracellular matrix (microdialysis, LC/MS); type: in vivo, mice; conditions: for Adenosine concentration in ECM, Mean: n = 8; for Adenosine concentration in ECM, individual tumors: single animal values; for adenosine concentration in tumor ECM: 0.03 mg/kg
Protocol: To assess the effects of PEGADA2 on adenosine in tumor extracellular matrix, mice bearing peritibial MH194+PSC4 tumors received vehicle, the polypeptide whose sequence is set forth in SEQ ID NO:20, which contains the amino acid replacement K374D (Zavialov numbering; K371D mature numbering), at 0.03 mg/kg, or the polypeptide whose sequence is set forth in SEQ ID NO: 273, which contains the amino acid replacements R222Q/S265N (Zavialov numbering; R219Q/S262 mature numbering), at 0.03 mg/kg, 24 or 48 hours prior to microdialysis. Each of the polypeptides were PEGylated as described above in Examples 8 and 22). The mice were anesthetized using isofluorane, and a heating pad was used to maintain body temperature. A small incision was made on the tumor. A microdialysis probe with 55,000 Da molecular weight cut-off (CMA, Stockholm, Sweden) was inserted into the tumor, via a guided cannula. The length of the microdialysis probe used in this study was 10 mm. Once the probe was in position, the cannula was withdrawn leaving the probe completely embedded in the tumor tissue. Dulbecco's phosphate buffered saline (DPBS; Thermo Fisher Scientific) with ADA inhibitors (Pentostatin and 5-iodotubercindin) was perfused through the probe at a flow rate of 1 μl/min for 30 minutes. Then the samples were collected at a flow rate of 0.5 μl/min for 60 minutes. Microdialysis perfusates were analyzed by Liquid chromatography-mass spectrometry (LC/MS) at MicroConstants (9050 Camino Santa Fe, San Diego, Calif. 92121).

Molecule: Nc1ncnc2c1ncn2[C@@H]1O[C@H](CO)[C@@H](O)[C@H]1O [Adenosine, adenosine]
- IC50 ([1]; Homo sapiens, NKT, 120 h): 16.2 µM
- Mean Cell survival (%) ([1]; adenosine 0.1 μM): 106.67%
- Mean Cell survival (%) ([1]; adenosine 0.3 μM): 101.19%
- Mean Cell survival (%) ([1]; adenosine 1 μM): 121.11%
- Mean Cell survival (%) ([1]; adenosine 3 μM): 110.07%
- Mean Cell survival (%) ([1]; adenosine 10 μM): 70.33%
- Mean Cell survival (%) ([1]; adenosine 30 μM): 36.84%
- Mean Cell survival (%) ([1]; adenosine 100 μM): 26.01%
- Mean Cell survival (%) ([1]; adenosine 300 μM): 13.65%
- Mean Cell survival (%) ([1]; adenosine 1000 μM): 15.82%

- Average OD450, heparin binding capture ELISA [3]: 0.75
B1: PEG-WT ADA2: WT rHuADA2 PEGylated with linear PEG-20K (conjugate, UniProt Q9NZK5 30-511, looked up)
Adenosine deaminase 2: IDETRAHLLLKEKMMRLGGRLVLNTKEELANERLMTLKIAEMKEAMRTLIFPPSMHFFQAKHLIERSQVFNILRMMPKGAALHLHDIGIVTMDWLVRNVTYRPHCHICFTPRGIMQFRFAHPTPRPSEKCSKWILLEDYRKRVQNVTEFDDSLLRNFTLVTQHPEVIYTNQNVVWSKFETIFFTISGLIHYAPVFRDYVFRSMQEFYEDNVLYMEIRARLLPVYELSGEHHDEEWSVKTYQEVAQKFVETHPEFIGIKIIYSDHRSKDVAVIAESIRMAMGLRIKFPTVVAGFDLVGHEDTGHSLHDYKEALMIPAKDGVKLPYFFHAGETDWQGTSIDRNILDALMLNTTRIGHGFALSKHPAVRTYSWKKDIPIEVCPISNQVLKLVSDLRNHPVATLMATGHPMVISSDDPAMFGAKGLSYDFYEVFMGIGGMKADLRTLKQLAMNSIKYSTLLESEKNTFMEIWKKRWDKFIADVATK
modifications: linear PEG-20K
notes: WT rHuADA2 PEGylated with linear PEG-20K
- adenosine deaminase activity mU/mL ([2]; PEGylated and non-PEGylated forms (Table 23)): 124.2 mU/mL
- % of WT adenosine deaminase activity ([2]; Table 23): 102.2%
- AUC (mU * h)/mL [4]: 1,444,000 (mU * h)/mL
- Half life slow (t1/2) [4]: 13.6 h
- Percent increase in AUC compared to WT ADA2 [4]: 4291%
- Percent increase in t1/2 compared to WT ADA2 [4]: 1078%
- Tm, melting temperature by DSF [5]: 68.81 °C

B2: R222Q/S265N: ADA2 combination variant SEQ ID NO:273 (protein)
chain: IDETRAHLLLKEKMMRLGGRLVLNTKEELANERLMTLKIAEMKEAMRTLIFPPSMHFFQAKHLIERSQVFNILRMMPKGAALHLHDIGIVTMDWLVRNVTYRPHCHICFTPRGIMQFRFAHPTPRPSEKCSKWILLEDYRKRVQNVTEFDDSLLRNFTLVTQHPEVIYTNQNVVWSKFETIFFTISGLIHYAPVFRDYVFRSMQEFYEDNVLYMEIRAQLLPVYELSGEHHDEEWSVKTYQEVAQKFVETHPEFIGIKIIYNDHRSKDVAVIAESIRMAMGLRIKFPTVVAGFDLVGHEDTGHSLHDYKEALMIPAKDGVKLPYFFHAGETDWQGTSIDRNILDALMLNTTRIGHGFALSKHPAVRTYSWKKDIPIEVCPISNQVLKLVSDLRNHPVATLMATGHPMVISSDDPAMFGAKGLSYDFYEVFMGIGGMKADLRTLKQLAMNSIKYSTLLESEKNTFMEIWKKRWDKFIADVATK
modifications: human ADA2 R219Q/S262N, mature numbering
- fold higher catalytic efficiency (kcat/Km) compared to the WT ADA2 ([6]; pH 6.5): 8.2 fold
- fold lower Km compared to the WT ADA2 ([6]; pH 6.5): 5.0 fold
- Km ([6]; pH 6.5): 800 µM
- Vmax ([6]; pH 6.5): 56.75 µM/min
- kcat ([6]; pH 6.5): 111.27 s⁻¹
- fold higher catalytic efficiency (kcat/Km) compared to the WT ADA2 ([6]; pH 7.6): 15 fold
- fold lower Km compared to the WT ADA2 ([6]; pH 7.6): 4.7 fold
- Km ([6]; pH 7.6): 1100 µM
- Vmax ([6]; pH 7.6): 87.79 µM/min
- kcat ([6]; pH 7.6): 172.14 s⁻¹
- Adenosine concentration in ECM, Mean ([7]; 24 hours after 0.03 mg/kg): 6.88 µM
- Adenosine concentration in ECM, individual tumors ([7]; 24 hours after 0.03 mg/kg): 0.08 µM and 20.54 µM and 1.08 µM and 0.62 µM and 4.94 µM and 21.48 µM and 0.48 µM and 5.80 µM
- adenosine concentration in tumor ECM ([7]; 24 hours post treatment): 6.9 µM
- Adenosine concentration in ECM, Mean ([7]; 48 hours after 0.03 mg/kg): 9.77 µM
- Adenosine concentration in ECM, individual tumors ([7]; 48 hours after 0.03 mg/kg): 13.06 µM and 1.96 µM and 20.36 µM and 20.62 µM and 0.35 µM and 4.15 µM and 14.26 µM and 3.43 µM
- adenosine concentration in tumor ECM ([7]; 48 hours post treatment): 9.8 µM
